For 19 molecules, koff results are on record in patent publication US20250215104A1 (WALDEN BIOSCIENCES, published 2025).

The target in assay [1] is T1, human soluble urokinase plasminogen activator receptor (hsuPAR) (human, UniProt Q03405 23-303, limits assumed).
T1 construct: Target antigen of the off-rate screen; also called human suPAR; rhuPAR-His
Briefly: BLI (Octet) off-rate screen of scFv clones. Background: BLI is a label-free optical method that tracks binding on a fibre tip over time.

The target of the next assay is T2, cynomolgus suPAR (cynomolgus, UniProt Q9GK78 23-303, limits assumed).
T2 construct: Target antigen of the off-rate screen; also called cynomolgus uPAR; cynoPLAUR-His
T2 sequence (Q9GK78 23-303 limits assumed): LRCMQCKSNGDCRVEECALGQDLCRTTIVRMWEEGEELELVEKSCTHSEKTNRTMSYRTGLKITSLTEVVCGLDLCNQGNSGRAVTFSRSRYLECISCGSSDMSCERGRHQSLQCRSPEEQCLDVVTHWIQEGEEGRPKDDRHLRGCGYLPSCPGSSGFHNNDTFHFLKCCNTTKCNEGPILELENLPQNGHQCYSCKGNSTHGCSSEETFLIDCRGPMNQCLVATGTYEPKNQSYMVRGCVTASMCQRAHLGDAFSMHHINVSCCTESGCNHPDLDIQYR
Briefly: BLI (Octet) off-rate screen of scFv clones.

T1 sequence (Q03405 23-303 limits assumed): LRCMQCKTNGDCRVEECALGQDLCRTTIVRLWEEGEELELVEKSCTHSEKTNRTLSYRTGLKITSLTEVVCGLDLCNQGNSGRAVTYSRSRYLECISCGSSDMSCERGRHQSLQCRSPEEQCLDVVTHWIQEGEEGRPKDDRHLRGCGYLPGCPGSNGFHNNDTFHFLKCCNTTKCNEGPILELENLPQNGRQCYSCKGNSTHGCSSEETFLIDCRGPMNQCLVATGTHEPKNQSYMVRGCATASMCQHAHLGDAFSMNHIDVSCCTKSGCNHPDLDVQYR

B1: suPAR_DB03_A06 (scFv, V domains shown)
VH: QVQLVQSGAEVKKPGASVKVSCKASGFNITDYYIHWVRQAPGQGLEWMGWIDPENGSTIYAQKFQGRVTMTRDTSTSTVYMELSSLRSEDTAVYYCARGYDVDWFVYWGQGTLVTVSS
VL: DIQMTQSPSSLSASVGDRVTITCSARQSISYMYWYQQKPGKAPKLLIYRTSNLASGVPSRFSGSGSGTDFTLTISSLQPEDFATYYCQQYHSYPPTFGGGTKVEIK
notes: screened as scFv
The term koff denotes the first-order rate constant of dissociation. Low readings indicate a long-lived complex, high ones a short-lived complex. Turning to B1, the values for the koff (in assay [1]; with cynomolgus suPAR) were 0.00302 s⁻¹ and 6.32e-07 s⁻¹, respectively.

B2: suPAR_DB03_A08 (scFv, V domains shown)
VH: QVQLVQSGAEVKKPGASVKVSCKASGYTFTGYYMHWVRQAPGQGLEWMGWIDHENGSTIYAQKFQGRVTMTRDTSTSTVYMELSSLRSEDTAVYYCARGYDVDWFVYWGQGTLVTVSS
VL: DIQMTQSPSSLSASVGDRVTITCSASSSVSYMYWYQQKPGKAPKLLIYRTSNLASGVPSRFSGSGSGTDFTLTISSLQPEDFATYYCQQYHSYPPTFGGGTKVEIK
notes: screened as scFv
Take B2: the figures for the dissociation rate constant (koff) (in assay [1]; with cynomolgus suPAR) were 0.000306 s⁻¹ and 0.000269 s⁻¹, respectively.

B3: suPAR_DB03_B04 (scFv, V domains shown)
VH: QVQLVQSGAEVKKPGASVKVSCKASGYTFTGYYMHWVRQAPGQGLEWIGWITPDSGGTVYAQKFQGRVTMTRDTSTSTVYMELSSLRSEDTAVYYCARGYDVDWFVYWGQGTLVTVSS
VL: DIQMTQSPSSLSASVGDRVTITCSASSSISYMYWYQQKPGKAPKLLIYRTSNLASGVPSRFSGSGSGTDFTLTISSLQPEDFATYYCQQYHSYPPTFGGGTKVEIK
notes: screened as scFv
As to B3, the values for the koff (in assay [1]; in the assay with cynomolgus suPAR) were 0.00197 s⁻¹ and 4.52e-07 s⁻¹, respectively.

B4: suPAR_DB03_C01 (scFv, V domains shown)
VH: QVQLVQSGAEVKKPGASVKVSCKASGSTSTDHYVHWVRQAPGQGLEWMGWIDHEGGSTIYAQKFQGRVTMTRDTSTSTVYMELSSLRSEDTAVYYCARGYDVDWFVYWGQGTLVTVSS
VL: DIQMTQSPSSLSASVGDRVTITCSARSSVSYMYWYQQKPGKAPKLLIYRTSNLASGVPSRFSGSGSGTDFTLTISSLQPEDFATYYCQQYHSYPPTFGGGTKVEIK
notes: screened as scFv
With B4, the values for the koff (in assay [1]; with cynomolgus suPAR) were 0.00366 s⁻¹ and 0.000165 s⁻¹, respectively.

B5: suPAR_DB03_C02 (scFv, V domains shown)
VH: QVQLVQSGAEVKKPGASVKVSCKASGYSFTNYYIHWVRQAPGQGLEWMGWIDHENGNTIYDQKFQGRVTMTRDTSTSTVYMELSSLRSEDTAVYYCARGNDVDWFVYWGQGTLVTVSS
VL: DIQMTQSPSSLSASVGDRVTITCSARSSVSYMYWYQQKPGKAPKLLIYRTSNLASGVPSRFSGSGSGTDFTLTISSLQPEDFATYYCQQYHSYPPTFGGGTKVEIK
notes: screened as scFv
In the case of B5, the koff in assay [1] was determined as 0.00534 s⁻¹; in the assay with cynomolgus suPAR, 0.000366 s⁻¹.

B6: suPAR_DB03_A10 (scFv, V domains shown)
VH: QVQLVQSGAEVKKPGASVKVSCKASGYTFSNYYMHWVRQAPGQGLEWMGWIDHENGSTIYAQKFQGRVTMTRDTSTSTVYMELSSLRSEDTAVYYCARGYDVDWFVYWGQGTLVTVSS
VL: DIQMTQSPSSLSASVGDRVTITCSARSSVSYMYWYQQKPGKAPKLLIYRTSNLASGVPSRFSGSGSGTDFTLTISSLQPEDFATYYCQQYHSYPPTFGGGTKVEIK
notes: screened as scFv
In the case of B6, the results for the koff (in assay [1]; with cynomolgus suPAR) were 0.000838 s⁻¹ and 0.000685 s⁻¹, respectively.

B7: suPAR_DB03_C06 (scFv, V domains shown)
VH: QVQLVQSGAEVKKPGASVKVSCKASGYTFTDYYVHWVRQAPGQGLEWMGWIDHEGGSTSYDQKFQGRVTMTRDTSTSTVYMELSSLRSEDTAVYYCARGYDVDWFVYWGQGTLVTVSS
VL: DIQMTQSPSSLSASVGDRVTITCSASSSVSYMYWYQQKPGKAPKLLIYRTSNLASGVPSRFSGSGSGTDFTLTISSLQPEDFATYYCQQYHSYPPTFGGGTKVEIK
notes: screened as scFv
On to B7, for which the koff came to 0.00318 s⁻¹ in assay [1] and 0.000189 s⁻¹ with cynomolgus suPAR.

B8: suPAR_DB03_C04 (scFv, V domains shown)
VH: QVQLVQSGAEVKKPGASVKVSCKASGFNIKDYYIHWVRQAPGQGLEWMGWIDPENGSTIYDQKFQGRVTMTRDTSTSTVYMELSSLRSEDTAVYYCARGYDVDWFVYWGQGTLVTVSS
VL: DIQMTQSPSSLSASVGDRVTITCSASSSISYMYWYQQKPGKAPKLLIYRTSSLASGVPSRFSGSGSGTDFTLTISSLQPEDFATYYCQQYHSYPPTFGGGTKVEIK
notes: screened as scFv
Turning to B8, the off-rate (koff) in assay [1] came to 0.00301 s⁻¹; with cynomolgus suPAR it was 4.37e-07 s⁻¹.

B9: suPAR_DB03_B02 (scFv, V domains shown)
VH: QVQLVQSGAEVKKPGASVKVSCKASGDTFTSYYMHWVRQAPGQGLEWMGWIDHENGSTSYDQKFQGRVTMTRDTSTSTVYMELSSLRSEDTAVYYCARGYDVDWFVYWGQGTLVTVSS
VL: DIQMTQSPSSLSASVGDRVTITCSARSSVSYMYWYQQKPGKAPKLLIYRTSNLASGVPSRFSGSGSGTDFTLTISSLQPEDFATYYCQQYHSYPPTFGGGTKVEIK
notes: screened as scFv
On to B9, for which the dissociation rate constant (koff) in assay [1] came out at 0.0024 s⁻¹; with cynomolgus suPAR it was 0.000148 s⁻¹.

B10: suPAR_DB03_B05 (scFv, V domains shown)
VH: QVQLVQSGAEVKKPGASVKVSCKASGYTFTSYYMHWVRQAPGQGLEWMGWIDPENGNTIYDQKFQGRVTMTRDTSTSTVYMELSSLRSEDTAVYYCARGYDIDWFVYWGQGTLVTVSS
VL: DIQMTQSPSSLSASVGDRVTITCSARQSVSYMYWYQQKPGKAPKLLIYRTSNLASGVPSRFSGSGSGTDFTLTISSLQPEDFATYYCQQYHSYPPTFGGGTKVEIK
notes: screened as scFv
As for B10, the dissociation rate constant (koff) in assay [1] was 0.00536 s⁻¹; with cynomolgus suPAR it was 0.000126 s⁻¹.

B11: suPAR_DB03_B09 (scFv, V domains shown)
VH: QVQLVQSGAEVKKPGASVKVSCKASGYNIKSYYIHWVRQAPGQGLEWMGWIDPEGGSTIYDQKFQGRVTMTRDTSTSTVYMELSSLRSEDTAVYYCARGYDVDWFVYWGQGTLVTVSS
VL: DIQMTQSPSSLSASVGDRVTITCSARSSVSYMYWYQQKPGKAPKLLIYRTSNLASGVPSRFSGSGSGTDFTLTISSLQPEDFATYYCQQYHSYPPTFGGGTKVEIK
notes: screened as scFv
On to B11, for which the off-rate constant (koff) turned out to be 0.00421 s⁻¹ in assay [1] and 0.000126 s⁻¹ in the assay with cynomolgus suPAR.

B12: suPAR_DB03_C07 (scFv, V domains shown)
VH: QVQLVQSGAEVKKPGASVKVSCKASGYTFTNYYVHWVRQAPGQGLEWMGWIDHENGSTIYDQKFQGRVTMTRDTSTSTVYMELSSLRSEDTAVYYCARGYDVDWFVYWGQGTLVTVSS
VL: DIQMTQSPSSLSASVGDRVTITCSARSSVSYMYWYQQKPGKAPKLLIYRTSNLASGVPSRFSGSGSGTDFTLTISSLQPEDFATYYCQQYHSYPPTFGGGTKVEIK
notes: screened as scFv
As for B12, the off-rate constant (koff) worked out at 0.00166 s⁻¹ in assay [1] and 5.78e-05 s⁻¹ with cynomolgus suPAR.

B13: suPAR_DB03_B06 (scFv, V domains shown)
VH: QVQLVQSGAEVKKPGASVKVSCKASGYNITDYYIHWVRQAPGQGLEWMGWIDPENGSTIYDQKFQGRVTMTRDTSTSTVYMELSSLRSEDTAVYYCARGYDVDWFVYWGQGTLVTVSS
VL: DIQMTQSPSSLSASVGDRVTITCSARSSVSYMYWYQQKPGKAPKLLIYRTSNLASGVPSRFSGSGSGTDFTLTISSLQPEDFATYYCQQYHSYPPTFGGGTKVEIK
notes: screened as scFv
For B13, the dissociation rate constant (koff) in assay [1] is 0.00352 s⁻¹; with cynomolgus suPAR it was 1.08e-05 s⁻¹.

B14: suPAR_DB03_B08 (scFv, V domains shown)
VH: QVQLVQSGAEVKKPGASVKVSCKASGYAFTGYYMHWVRQAPGQGLEWMGWIDHENGNTIYDQKFQGRVTMTRDTSTSTVYMELSSLRSEDTAVYYCARGYDVDWFVYWGQGTLVTVSS
VL: DIQMTQSPSSLSASVGDRVTITCRARQSVSYMYWYQQKPGKAPKLLIYRTSNLASGVPSRFSGSGSGTDFTLTISSLQPEDFATYYCQQYHSYPPTFGGGTKVEIK
notes: screened as scFv
Consider B14, for which the dissociation rate constant (koff) came to 0.00133 s⁻¹ in assay [1] and 0.000226 s⁻¹ with cynomolgus suPAR.

B15: suPAR_DB03_B01 (scFv, V domains shown)
VH: QVQLVQSGAEVKKPGASVKVSCKASGNTFTGHYMQWVRQAPGQGLEWMGWIDHENGNTSYAQKFQGRVTMTRDTSTSTVYMELSSLRSEDTAVYYCARGYDVDWFVYWGQGTLVTVSS
VL: DIQMTQSPSSLSASVGDRVTITCSARSSVSYMYWYQQKPGKAPKLLIYRTSNLASGVPSRFSGSGSGTDFTLTISSLQPEDFATYYCQQYHSYPPTFGGGTKVEIK
notes: screened as scFv
On to B15, for which the koff in assay [1] turned out to be 0.00297 s⁻¹; with cynomolgus suPAR, 0.000343 s⁻¹.

B16: suPAR_DB03_B10 (scFv, V domains shown)
VH: QVQLVQSGAEVKKPGASVKVSCKASGYTFTGYYMHWVRQAPGQGLEWMGWIDHENGNTIYDQKFQGRVTMTRDTSTSTVYMELSSLRSEDTAVYYCARGTDVDWFVYWGQGTLVTVSS
VL: DIQMTQSPSSLSASVGDRVTITCSASSSISYMYWYQQKPGKAPKLLIYRTSNLASGVPSRFSGSGSGTDFTLTISSLQPEDFATYYCQQYHSYPPTFGGGTKVEIK
notes: screened as scFv
In the case of B16, the off-rate constant (koff) in assay [1] turned out to be 0.004 s⁻¹; in the assay with cynomolgus suPAR, 0.000138 s⁻¹.

B17: suPAR_DB03_C03 (scFv, V domains shown)
VH: QVQLVQSGAEVKKPGASVKVSCKASGYTFTGYYMHWVRQAPGQGLEWMGWIDHENGSTSYDQKFQGRVTMTRDTSTSTVYMELSSLRSEDTAVYYCASGYDVDWFVYWGQGTLVTVSS
VL: DIQMTQSPSSLSASVGDRVTITCSARSSVSYMYWYQQKPGKAPKLLIYGASNLQSGVPSRFSGSGSGTDFTLTISSLQPEDFATYYCQQYHSYPPTFGGGTKVEIK
notes: screened as scFv
Regarding B17, the koff in assay [1] amounted to 0.00464 s⁻¹; in the assay with cynomolgus suPAR, 0.00108 s⁻¹.

B18: suPAR_DB03_A11 (scFv, V domains shown)
VH: QVQLVQSGAEVKKPGASVKVSCKASGYTFTSYYMHWVRQAPGQGLEWVGWMDPNSGGTSYAQKFQGRVTMTRDTSTSTVYMELSSLRSEDTAVYYCARGYDVDWFVYWGQGTLVTVSS
VL: DIQMTQSPSSLSASVGDRVTITCSARSSVSYMYWYQQKPGKAPKLLIYRTSNLASGVPSRFSGSGSGTDFTLTISSLQPEDFATYYCQQYHSYPPTFGGGTKVEIK
notes: screened as scFv
As for B18, the off-rate constant (koff) came out at 0.00181 s⁻¹ in assay [1] and 7.99e-05 s⁻¹ with cynomolgus suPAR.

B19: suPAR_DB03_A09 (scFv, V domains shown)
VH: QVQLVQSGAEVKKPGASVKVSCKASGYTFTSHYVHWVRQAPGQGLEWMGWIDHSNGSTIYDQKFQGRVTMTRDTSTSTVYMELSSLRSEDTAVYYCARGYDVDWFVYWGQGTLVTVSS
VL: DIQMTQSPSSLSASVGDRVTITCSARQSISYMYWYQQKPGKAPKLLIYRTSNLASGVPSRFSGSGSGTDFTLTISSLQPEDFATYYCQQYHSYPPTFGGGTKVEIK
notes: screened as scFv
In the case of B19, the koff came out at 0.00132 s⁻¹ in assay [1] and 0.000254 s⁻¹ with cynomolgus suPAR.
